For some assays here: Variants at the floor of the assay were thinned out.
B1: TPR 5TU (parent)
chain: GGAUCUUCUCGAUCUAACAAAAAAGACAAAUCUGCCACAAAGCUUGAGAGCAUCUUCGGAUGCAGAGGCGGCAGCCUUCGGUGGCGCGAUAGCGCCAACGUUCUCAACUAUGACACGCAAAACGCGUGCUCCGUUGAAUGGAGUUUAUCAUG
B2: TPR t1 (parent)
chain: GACCAAUCUGCCCUCAGAGCUCGAGAACAUCUUCGGAUGCAGAGGAGGCAGGCUUCGGUGGCGCGAUAGCGCCAACGUCCUCAACCUCCAAUGCAUCCCACCACAUGAUGAUGCCUGAAGAGCCUUGGUUUUUUG

Variants of: B1
Assay: polymerase ribozyme fitness, log enrichment relative to wild type (log ratio); higher = more active; in vitro selection for triplet polymerase activity
Outline: (§1)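 Only genotypes with ≥10 input reads and ≥1 read per output were kept after Illumina sequencing of input and output libraries. These libraries were PCR-built, transcribed mutants of each subunit of a heterodimeric triplet polymerase ribozyme, each put through one triplicate in vitro selection round with frozen incubation at −7 °C, gel excision of extended constructs, streptavidin-bead capture and RT-PCR. Fitness is a logarithmic ratio of genotype enrichment to wild-type enrichment, from inverse-variance-weighted replicate averages, with the logarithm in base 2.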

Variant	polymerase ribozyme fitness (log ratio)
G59U A97C	-0.238
A22G G117A	1.13
G50A C79U A138G	≤ -4.2
C93G G94U C108G	≤ -4.2
C85A A120C A121U U130C U151G	≤ -4.2
A20C A41U G68C G83A G100U A115G C116U C123G	≤ -4.2
U101G A120G	-0.0391
C96U A97G	-0.535
A12U C87U	-1.1
U53A A73C	-3.99
G50C G83A	-3.65
U15A G59A A60G C69A A121C G140A	-3.82
A26G C27G C87U U148A	≤ -4.2
U33G U56A C69U C87G U101C	≤ -4.2
A3U U7C A52C C95U C99U	≤ -4.2
A41U U144G	0.164
C14G A20U	-2.37
A3C C10G G62U G68C C87U A107C C123U G128A A137C U139C	≤ -4.2
G59U G68A C96U	≤ -4.2
U55A C72A U139C	≤ -4.2
C54U U135A G136C	-3.76
C38U A47U C54A A73G U78A A91U C114A A115U C116U G136C U146G	≤ -4.2
G83C G94A A98U C125U	-1.82
G50U C95G U104A	-1.95
A39G C103G U144A	≤ -4.2
U135C U145C	-2.51

Variant	polymerase ribozyme fitness (log ratio)
A3G A97C A107G	≤ -4.2
C93U C95G A113G A137U A138U	≤ -4.2
G68A G94C	-4.03
C36A A150U	-4.01
G42A G59A G74U C96G A137G	≤ -4.2
A47U A52G U144G	0.507
C32U A52G U55G G94C	-3.43
A37G C131U U134C	-1.56
C57A A122C	-0.0129
C18U C54G G59A C93A G136U	≤ -4.2
A20U G70C C93G	≤ -4.2
U33G C95U	-2.22
C93U G128C	-3.31
A21U U55A C93G A97U A115U	≤ -4.2
A16G C76U C79A G83U G152U	≤ -4.2
C57G G94C C114G C118A	≤ -4.2
A52C G59A	-1.18
U130A	-1.66
G80A G92U	-3.2
A12G C96U	-0.793
U109C C114U	-3.87
A17U A47G C57U G74C U77C U82A G83A U102G A150G	≤ -4.2
C76G C93U	≤ -4.2
A21C U53G C87A C95A C149G	≤ -4.2
C54U C57U G100C	≤ -4.2
A26G C76A	-3.95

Variant	polymerase ribozyme fitness (log ratio)
C27A U101G	-3.63
A23U G80U A91U G143C A150G	≤ -4.2
A17G C72A U77G C79U U109G	≤ -4.2
G50A C118U A122G A137G A147U	-2.53
A40U G42A C63U C114U A119C G141U G143A	≤ -4.2
A16C C18G U45G U61G	≤ -4.2
C51G G88A	≤ -4.2
C5G A12G G83A G94A G141C	-4.19
C69A C85A G124U	-2.55
C87G A91C U127G A142U	≤ -4.2
C36U A60G C87A G88C G141C	≤ -4.2
U6G A17U A21U A49C C51U C79U G84A C114G	≤ -4.2
C14G A20C G92C C125G	-3.88
G34C A39G A49C A97U	≤ -4.2
A24U C57A A89U C95U C118U G143U	≤ -4.2
A19C G65A G83C	-1.84
G84A U90A A121U	≤ -4.2
C8A A22C C35U G48C A73U	≤ -4.2
G71C U109A U111G	≤ -4.2
A3G A20U C36A C87G C129A U139C U146G	≤ -4.2
C5G G48C U77A C85A G100A C103G C125A	≤ -4.2
G25U A41G C93G A113U A150U	≤ -4.2
A17G C18U A40C C99G	-3.19
A3G A23C A24U C51U U55G G84A C85A G92U	≤ -4.2
A21C G50C G74A C87G U109G	≤ -4.2
C5A A113U	-2.74

Variant	polymerase ribozyme fitness (log ratio)
A41C C76A G84A A120C	-2.53
U31G C38G U101G U139C U146G	-4.03
C38G U55A C96A A150G	-2.63
A22C G92C C114U A150C	≤ -4.2
U33G C38A C93U A113U G136A A138U	≤ -4.2
A12U A20G A21C U31A C35G G86U A91G A119U G128C	-3.91
C51U G141A	0.523
A23G A26C G141A C149G	≤ -4.2
G50A C51G G83U G84A G141U	≤ -4.2
C32G G58C G94U	-3.86
U13G C76A	-2.11
C32G A39G G58U G143C	-4.1
U101G	0.557
G50C G74C A120G G124U G126A	≤ -4.2
A39U C99A	-3.7
A24U G34C C79G C87U A137U	≤ -4.2
C54U G86C	-3.47
A22U A47G U56C G92C C105U	-3.13
A47C G92A A107G	≤ -4.2
A52G U53G A106C A119U G136U	≤ -4.2
C96U C99A G133C G141A	≤ -4.2
C85A G126C	-0.131
G11C A12G A41U C76A G83A C103G C114A	≤ -4.2
A19C G80A C85G	-0.89
U15G A24U G25C C38G C54G C76G G81C C93A C132U	≤ -4.2
A52G A106G G143A	-0.542

Variant	polymerase ribozyme fitness (log ratio)
A22C A28U G62A G65C U90A C99U C108U C116G	≤ -4.2
C57A C69A U127A	≤ -4.2
C27G A37U A64C G88C A91C A120G A122U U148G	-4.09
U4A C93A	-1.38
C5U A30G A52U C76G G94A C118U U148A	≤ -4.2
U31A A40G U44G G141C	-4.06
C5A G94U C95A C123A U135C	-3.89
C85A C87A C108U A121U U135C G141A U145A	≤ -4.2
U6A U55G U139A	≤ -4.2
A47U C76U A119C U139G	-2.8
A37C A41U G48U A73U C93G C99U G140A	≤ -4.2
G92A G126U	-2.26
U45A G48U G50A G59C G68U C96U C131A A137C G152A	≤ -4.2
C99G C116U	-0.76
U56G U151C	≤ -4.2
A60C C96U A142C G143A	≤ -4.2
A40G C93U C99U	-4.16
C18U C35U G58U G80C C85U	≤ -4.2
C93U A122U	-0.696
U33C C51U G59C C63A A120C C125G U134G	≤ -4.2
C14A A20U A60G A66U C93G	≤ -4.2
A24U A28U A39C G59C A60U A66G G68C C79G G81A C116G C125U	≤ -4.2
C14A C85A C129U	-2.79
G48A U55A A119U G124U U144C	-1.13
A12G C14A C38U C43A U56A C85U C103G	≤ -4.2
A52U C129U	-2.91

Variant	polymerase ribozyme fitness (log ratio)
A98U A120U G143C	-2.39
A60C C99G U101G	≤ -4.2
C54U C79U A115G A120G A122U G141U	≤ -4.2
U53C A150G	-1.01
A49C G124U	≤ -4.2
C72U A98G U134C	-0.362
G11A G86A	-2.24
A29C C35U U53A C76G G92A C99A A122G G124U	≤ -4.2
A40C A137G	-1.42
C27A U55A C76U A98G	≤ -4.2
U56A C69A	-1.46
U7G C93G U139A	≤ -4.2
A41U G140A	-3.78
U56G C75G C93U	-4.19
U4G U13G C93U A120G G143A U148C	≤ -4.2
A52G G141U U145C G152A	-2.27
G92C G141C	-0.623
C18G G92C C129U A150U	-3.54
C35A U45A U101A	-4.13
A12C A37G G46C C96G A110G C116U U135G	≤ -4.2
C93A G143A	-2.78

Variants of: B2
Assay: as above
Outline: as §1

Variant	polymerase ribozyme fitness (log ratio)
U129A	-1.11
U129G	-1.1
U129C	-0.185
U129G U130A	-2.04
G127U G128A	-2.19
U133G	-0.279
U133A	-0.252
U133C	0.332
U130G U131A	-0.66
G127U U132C	-0.0869
G127A U130C	-0.727
G128C U130C	-1.33
G127C G128U U133A	-1.83
U129A G135C	-0.497
U131C U132A	-0.543
U133G G135C	0.463
